Data reported in patent publication US20240247043A1 (WUHAN YZY BIOPHARMA, published 2024).
Substitutions are numbered along the chain they refer to. Numbers in names are those of the source.

B1: human FGL1-His antigen (ACRO, FG1-H52Hy) (ligand, UniProt Q08830 23-312, looked up)
chain: LEDCAQEQMRLRAQVRLLETRVKQQQVKIKQLLQENEVQFLDKGDENTVIDLGSKRQYADCSEIFNDGYKLSGFYKIKPLQSPAEFSVYCDMSDGGGWTVIQRRSDGSENFNRGWKDYENGFGNFVQKHGEYWLGNKNLHFLTTQEDYTLKIDLADFEKNSRYAQYKNFKVGDEKNFYELNIGEYSGTAGDSLAGNFHPEVQWWASHQRMKFSTWDRDHDNYEGNCAEEDQSGWWFNRCHSANLNGVYYSGPYTAKTDNGIVWYTWHGWWYSLKSVVMKIRPNDFIPNVI
notes: Bought His-tagged protein; also called hFGL1; hFGL1 antigen
B2: LAG-3 D1-D2-LZ wild type W1161-LZ (other)
chain 1: LQPGAEVPVVWAQEGAPAQLPCSPTIPLQDLSLLRRAGVTWQHQPDSGPPAAAPGHPLAPGPHPAAPSSWGPRPRRYTVLSVGPGGLRSGRLPLQPRVQLDERGRQRGDFSLWLRPARRADAGEYRAAVHLRDRALSCRLRLRLGQASMTASPPGSLRASDWVILNCSFSRPDRPASVHWFRNRGQGRVPVRESPHHHLAESFLFLPQVSPMDSGPWGCILTYRDGFNVSIMYNLTVLGGGGGSGGGGSEPKSSDKTHTCPPCPRIARLEEKVKTLKAQNSELASTANMLREQVAQLKQKVMNHHHHHH
chain 2: LQPGAEVPVVWAQEGAPAQLPCSPTIPLQDLSLLRRAGVTWQHQPDSGPPAAAPGHPLAPGPHPAAPSSWGPRPRRYTVLSVGPGGLRSGRLPLQPRVQLDERGRQRGDFSLWLRPARRADAGEYRAAVHLRDRALSCRLRLRLGQASMTASPPGSLRASDWVILNCSFSRPDRPASVHWFRNRGQGRVPVRESPHHHLAESFLFLPQVSPMDSGPWGCILTYRDGFNVSIMYNLTVLGGGGGSGGGGSEPKSSDKTHTCPPCPLTDTLQAETDQLEDEKSALQTEIANLLKEKEKLEFILAAHHHHHH
notes: Leucine zipper dimer of D1-D2-Linker2-c-JUN-His and D1-D2-Linker2-c-FOS-His
B3: LAG-3 D1-D2-LZ mutant WS323-LZ (N183A) (other)
chain 1: B2 chain 1 with N183A
chain 2: B2 chain 2 with N183A
notes: Leucine zipper dimer; D2 entry already carries N183A; copies: 1 + 1
B4: LAG-3 D1-D2-LZ mutant WS331-LZ (P195A) (other)
chain 1: B2 chain 1 with P195A
chain 2: B2 chain 2 with P195A
notes: Leucine zipper dimer; D2 entry already carries P195A; copies: 1 + 1
B5: LAG-3 D1-D2-LZ mutant WS447-LZ (E201D) (other)
chain 1: B2 chain 1 with E201D
chain 2: B2 chain 2 with E201D
notes: Leucine zipper dimer; D2 entry already carries E201D; copies: 1 + 1
B6: LAG-3 D1-D2-LZ mutant WS451-LZ (E201G) (other)
chain 1: B2 chain 1 with E201G
chain 2: B2 chain 2 with E201G
notes: Leucine zipper dimer; D2 entry already carries E201G; copies: 1 + 1

Assays:
[1] = biological target: T1, Y103-7A (LAG3 D1-D2-Fab, anti-PD-L1 Fab) (human); test: Biacore SPR, antigen amine-coupled on CM5 chip, 1:1 fit
T1 construct: Dimer of LAG-3-Linker3-VL-CL and LAG-3-Linker3-VH-CH1; the Fab is specific for PD-L1

[2] = biological target: T2, Y103-4A (LAG3 D1-D2-D3-D4-Fab, anti-PD-L1 Fab) (human); test: as above
T2 construct: Dimer of LAG-3-Linker3-VL-CL and LAG-3-Linker3-VH-CH1; the Fab is specific for PD-L1

[3] = biological target: T3, LAG-3 D1-D2-D3-Fc mutant M212A (UniProt P18627 23-352); test: procedures of Examples 2-4 repeated; method not told here
T3 construct: domain: D1-D2-D3; also called LAG-3 D1-D2-D3-Linker-Fc M212A

[4] = biological target: T4, LAG-3 D1-D2-D3-Fc mutant P207I (UniProt P18627 23-352); test: as above
T4 construct: domain: D1-D2-D3; also called LAG-3 D1-D2-D3-Linker-Fc P207I

[5] = biological target: T5, LAG-3 D1-D2-D3-Fc mutant E201G (UniProt P18627 23-352); test: as above
T5 construct: domain: D1-D2-D3; also called LAG-3 D1-D2-D3-Linker-Fc E201G

[6] = biological target: T6, LAG-3 D1-D2-D3-Fc mutant E201D (UniProt P18627 23-352); test: as above
T6 construct: domain: D1-D2-D3; also called LAG-3 D1-D2-D3-Linker-Fc E201D

[7] = biological target: B1; test: ELISA, same method as in Example 3: construct coated, serially diluted human FGL1 added, OD450

**Q.** B1 was tested. Which Kd [1] did it give?
**A.** 2.46 nM

**Q.** What about the Kd [2] of the same binder?
**A.** 0.929 nM

**Q.** Does B1 bind [3]?
**A.** binds

**Q.** Does B1 bind [4]?
**A.** binds

**Q.** Does B1 bind [5]?
**A.** binds

**Q.** Does B1 bind [6]?
**A.** binds

**Q.** Does B2 bind [7]?
**A.** binds

**Q.** Does B3 bind [7]?
**A.** binds

**Q.** Does B4 bind [7]?
**A.** binds

**Q.** Does B5 bind [7]?
**A.** binds

**Q.** Does B6 bind [7]?
**A.** binds
